According to the nanobody polyreactivity screen of Harvey et al. (2022):

Assay: yeast display, Sf9 membrane polyspecificity reagent, FACS + sequencing; frameworks hold sequencing errors
Summary of the method: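 After 36–48 hours of galactose induction, yeast (Saccharomyces cerevisiae BJ5465) displaying a synthetic nanobody library were stained at 4 °C for 1 hour with 10% biotinylated, detergent-solubilized Sf9 membrane reagent. Streptavidin microbeads enriched the stained cells before FACS sorting into low and high (top ~1%) gates on anti-HA and streptavidin fluorescence. Each clone's polyreactivity label reflects its gate of origin.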

Row | Sequence | polyreactivity (PSR sort gate)
1 | QVKLVESGGGLVQAGGSLRLSCAASGGTFGSNAMGWYRQAPGKERHLVAAISTTGGTTYYADSVKGRFTISRDNAKNTVYLQMNSLKPEDTAVYYCAKDGYVYGDWYTYAYDYWGQGTQVTVSS | low polyreactivity
2 | QVKLVESGGGLVQAGGSLRLSCAASGIIFSGNAMGWYRQAPGKERELVAAITRGGRTYYADSVKGRFTISRDNAKNTVYLQMNSLKPEDTAVYYCAADDPHRAREYDYWGQGTQVTVSS | high polyreactivity
3 | QVKLVESGGGLVQAGGSLRLSCAASGLTFRSYAMRWYRQAPGKERELVAAITRSGGSTYYADSVKGRFTISRDNAKNTVYLQMNRLKPEDTAVYYCAADYGRTLTGGDYWGQGTKVTVSS | high polyreactivity
4 | QVKLVESGGGLVQAGGSLRLSCAASGNIFSIYAMGWYRQAPGKERELVAAITARGGRTYYADSVKGRFTFSRDNAKNTVYLQMNSLKPEDTAVYYCNAVRSTKGYWVPFGGDYWGQGTQGTVSS | low polyreactivity
5 | QVKLVESGGGLVQAGGSLRLSCAASGRIFWSNAMVWYRQAPGKERELVAAISRRGGRTYYADSVKGRFTISRDNAKNTVYLQMNSLKPEDTAVYYCAADGTADYDYWGQGTQVTVSS | high polyreactivity
6 | QVKLVESGGGLVQAGGSLRLSCAASGSIFGSNAMGWYRQAPGKERELVAAITGRGGRTYYADSVKGRFTISRDNAKNTVYLQMNSLKPEDTAVYYCAAIRREVVAGDYWGQGTQVTVSS | high polyreactivity
7 | QVKLVESGGGLVQAGGSLRLSCAASGTFYYNTMGWYIQAPGTERELVAAITSGGRTYADSVKGRFTISRDNAKNTVYLQMNSLKPEDTAVYYCAASWYFFSPGGTFGYWGQGTQVTVSS | low polyreactivity
8 | QVKLVESGGGLVQAGGSLRLSCAAYGSTFAGYAMGWYRQAPGKERELVAAISVSGGSTDYADSVKGRFTISRDNAKNTVYLQMNSLKPEDTAVYYCAAVYVRNQWWRNYYWGQGTQVTVSS | low polyreactivity
9 | QVKLVESGGGLVQAGGSLRLSCADSGSIFVPNTRGWYRQAPGKERELVAAITAGGSTDYADSVKGRFTISRDNAKNTVYLQMNSLKPEDTAVYYCNADVYSWVSGKEGDYWGQGTQVTVTS | low polyreactivity
10 | QVKLVESGGGLVQAGGSLRLSCASSGFTFFHYAKGWYRQAPGKERELVAAISWSGGSTYYADTVKGRFTISRDNAKNTVYLQMNSLKPEDTAVYYCAADGGSTAFDYWGQGTQVTVSS | low polyreactivity
11 | QVKLVESGGGLVQAGGSLRLSCPASGITFVYYAMGGYRQAPGKERELVAAISSAGSSTYYADSVKGRFTISRDNAKNTVYLQMNSLKPEDTAVYYCAATYYVPRLQWMDYWGQGTQVTVSS | low polyreactivity
12 | QVKLVESGGGLVQAGGSLRLSSADSGFIFRRYAMGWYRQAPGKERELVAAINYSGGSTYYADSVKGRFTISRDHAKNTVYLQMNSPKPEYTAVYYCNAYGLRYYEYDYWGQGTQVTVSS | low polyreactivity
13 | QVKLVESGGGLVQAGGSLRLTCAASGIIFSWYAMGWYRQAPGKERELVAAISWSGGRTYYADSVKGRFTISRDNAKNSFYLQMNSLKPEDTAVYYCAAERNLFSHWEARYFWGQGTQVTVSS | high polyreactivity
14 | QVKLVESGGGLVQAGGSLRLTCAAYGFTFAGYTLGCYRQAPGKERELVAAITSSGGSTYYADYVKGRFTISRDNAKNTVYLQMNSLKPEDTAVYYCAARSHSTYYYWGQGTQVTVSS | high polyreactivity
15 | QVKLVESGGGLVQARGSLRLSCAASGRIFTIYAKGWYRPAPGKERELVAAITRGGNTNYADSVKGRFTISRDNAKNTVYLQMNSLKPEDTAVYNCAARANVYTKKRDYWGQGTQVTVSS | high polyreactivity
16 | QVKLVESGRALVQAGCSLPLSCAASGRIFTRYAMGWYRQAPGKERELVAAISYGGGGTYYADSVKGSFTISRDNAKNTVYVQMNSLKPEDTAVYYCATDDPLSQINEQGMDYWGQGTQVTVSS | low polyreactivity

Row | Sequence | polyreactivity (PSR sort gate)
17 | QVKLVESGRGLVQAGCSLRITCAASGGTLDNNAMGRYRQAPGKERELVAAISSSGSRTYYADSVKGRFTISRDHAKNSVYLQMNSLKPEDTAVYYCAARRYVRRYYWGQGTQVTVSS | high polyreactivity
18 | QVKLVETGGGLVQAGGSLRLSCAASGITFAYYAMGWYRQAPGKERELVARISRRGGSTYYADSVKGRFTISRDNAKNNVYLQMNSLKPEDTAVYYCAARVVVPKPYVDGDYWGEGTQVTVSS | high polyreactivity
19 | QVLLEESVGGLDQAGGSLRLSCAASGFNFQTNAMGRYRQAPGKEREFVAAISDSGGSTNYADSVKGRFTISRDNAKNTGYLQMNSLKPEDSAVYYCATSFAVYDYDYWGQGTQVTVSS | low polyreactivity
20 | QVLLLESGGGVVQAGGSHRLRCAASGRIFCTNTMGWYRQAPGKERELVAVISSSGDSTYYADSVKGRFTISRDNAKNTVYLQINSLKPEDTAVYYCAKGNNWISRLMDYWGQGTQVTVSS | low polyreactivity
21 | QVLLQESGGGLVQAGGSLRLCCSASGYISGDQFMGWYRQAPGKEREFVAGIGNGTNTNYADSVKGRFTTSRDNEKNTVYLQMNIRKPEDTAVYYCAADPSDGSTLAYWGQGTQVTVSS | high polyreactivity
22 | QVLLQESGGLVQAGCSLRMSCAASGSISTALSMGWYRQAPGKERELVATISDGASTNYADSVKGRFTISRVNAKNTVYLQMNSLKPEDTEVYYCAAQSQYRPDHRYWGQGTQVTVSS | high polyreactivity
23 | QVLLVESGGGLFQAGGRLRVSCAASGSTLLRYAMGWYRQAPGKERELVAAISGTGSRTYYADSVKGRFTISRDNAKNTVYLKMISLNPEDTAVYYCYACPYRLTEIDYWGQGTPVTVSS | high polyreactivity
24 | QVLLVESGGGLVQAAGSLRLSSAASGRIFASYPLGWYRQAPGKERELVAAISKSGGRTYYADSVKGRFTISRDNAKNTVYVQMNSLKPVDTAVYDCAAFFWTRSGTPNFDYWGQGTQVTVSS | high polyreactivity
25 | QVLLVESGGGLVQAGGSLRLSCAASGFIFDVYAMGWYRQAPGKERELVAAISSSGGRKYYADSVKGRFTISRDNAKNTVYLQMNSLKPEDTAVYYCAAKTHSRTKVYTADYWGQGTQVTVSS | high polyreactivity
26 | QVLLVESGGGLVQAGGSLRLSCAASGITFAYYVMGWYRQAPGKERELVAAINWSGGSTYYADSVKGRFTISRDNAKNTVYLQMNSLKPEDPAVYYCAADWSTWYGEKFYWGQGTQVTVSS | high polyreactivity
27 | QVLLVESGGGLVQAGGSLRLSCAASGRILYHYAMGWYRQAPGKERELVAAITRGGGTNYADSVKGRFTISRDNAKNTVYLQMNSLKPEDTAVYYCNADRFIVTRSRRGDYWGQGTQVTVSS | low polyreactivity
28 | QVLLVESGGGLVQAGGSLRLSCAASGRTFGTNGMGWYRQAPGKERELVAVITWTGGSTYYADSVKGRFTITRDNEKNTVYLQMNSLKPEDTAVYYCAAKYSHLGYNYWGQGTQVTVSS | high polyreactivity
29 | QVLLVESGGGLVQAGGSLRLSCAASGSILRTYAMGWYRQAPGKERELVAAITWSGGSTRYADSVKGRFTISRDNAKNTVYLQMNSLKPEDTAVYYCNARYRVYSYALYKYGYWGQGTQVTVSS | high polyreactivity
30 | QVLLVESGGGLVQAGGSLRLSCAASGSTFYYYGMGWYRQAPGKEREFVAAISWGGGSTRYADSVKGRITISRDNAKNTVYLQMNSLKPEDTAVYYCAARYPHYDYYYWGQGTQVTVSS | high polyreactivity
31 | QVLLVESGGGLVQAGGSLRLSCAASGYIFNRYVMGWTIQAPGKERELVAAIYIRGGSTFYSDSVKGCFTISRDNAKYTVYLQMNSLKPDDSAVYYCDDGRYGDYGYWGQGTQLTVSS | high polyreactivity
32 | QVLLVESGGGLVQAGGSLRLSCSASGITFEYYAMGWYRQAPGKERELVADIDTGGSTNYADSVKGRFTISRDNAKNTVYLQMNSLKPEDTAVYYCAADWSWWDAEDYHFEYDYWGQGTQVTVSS | low polyreactivity
